According to the supplement of paper PMC12764529:
± gives the half width of the 95% confidence interval.

experiment: folding stability dG unfold from trypsin proteolysis; higher = more stable
Summary of the method: (§1)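 Bayesian fitting of sequencing counts gave K50 for each design. Unfolding free energy followed by setting this against a sequence-predicted unfolded-state K50 and a shared folded-state K50, either per protease or with trypsin and chymotrypsin combined. The designs, under 80 residues and lacking cysteine, were digested in a PA-tagged cDNA display format at 11 threefold-diluted protease concentrations and without protease, and only those with AlphaFold2 dimer inter-PAE above 15 were kept.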

Sequence | folding stability dG unfold [kcal/mol]
SAGGATAVIADFPLPEGTLRVAVVKKDDKPYVFVFPSGISAEELKKILEEKLGVDIKKVEVKTVSTADESAG [r5_181_TrMRF] | 1.11 ± 0.053
SAGGSAGGSAGGIDFPEKGFVVVVTFPDGSKAEFEVPSDRPLVLNETAGDVTVDEIREKDSAGGSAGGSAGG [r7_542_TrMRF] | 0.955 ± 0.14
SAGGSAGGSAMTITKTITFSSKEEAEKFVKELEEKGNITITMTYEKLPSGKYKVTVTITKPSAGGSAGGSAG [r3_273_JUSTAS] | 3.62 ± 0.21
SAGMIKITIITENGEEITIEIPENMSEEELKELAEKIAKEIAKKLNIPKVKIKKIKIEKIELTPEQIKKSAG [r5_377_TrROS_Hall] | 0.887 ± 0.077
SAGGSAGGAIGTIDYNGKPLRLSVYLPDNPRVFEYPVDGDPLVFAAELNRETGFDVTDVVVVGGSAGGSAGG [r6_762_TrMRF] | 0.291 ± 0.098
SASMIIDPVSSEEEIEKLVKEAIEAGIGGEGLIVLRSDGKVYRITIEPGTGKVKKEEVMSPEELAAKLGSAG [r14_913_JUSTAS] | 1.75 ± 0.053
SAGGSSVRISFPNGYTVEITVTEDSATITLRSPTSTETVEFPSSVQVTITGPLNQPVTFDIPSSSESAGGSA [r2_57_TrMRF] | 2.77 ± 0.077
SAGGSAGGSAGPPDIEVNYYRYEGYYRVNISFPNNRPIEIMMKGPGMPAEDFVKKLLDQLSAGGSAGGSAGG [r11_313_TrROS] | 1.84 ± 0.1
SAGMVVVEIRTRDGRTLTVEVEAESEEEAERLARELAEELRRKFPDLEIRVERVEPPEPPEEVVEEEEESAG [r5_950_TrROS_Hall] | 3.23 ± 0.13
SAGGTSYLVRLELYETSTGEPLELELPFPNLPAEEVEELAKELAKALAEPTGNDLKARVEVVPLPDESAGGS [r8_185_TrMRF] | 0.0944 ± 0.031
SAGGSAGGSDTVNVKVTVSFPPGTETKEITVNVPVVPGNPDVVKAKVDELAAAFPDAVVTAEKSAGGSAGGS [r12_795_TrMRF] | 0.294 ± 0.078
SMEEELPPKVTEVVVKVPLSPDASPEEIAAARALAAELAAALEAAGYRDVEVTVEPTEPGALVIRARVVVSA [r9_865_JUSTAS] | 2.79 ± 0.036
SAGWFVRIEIEPPGEKREIMIPFSWDEARELLKDLGLEVEVDPESPTFEFKLPNYQIKVEFMPIPPGQMSAG [r5_248_TrROS] | 2.34 ± 0.12
SAGGPRITITYPLPPGDIEKIEKLAKEALDNGDNVDVNIPHPNGWYVTLTVDPPNGKIEEVEWQPPDKSAGG [r13_873_TrROS] | 0.571 ± 0.076
SAPKIKEIKEFDPETKKILIKVETPEGEKEIPIPAGGNMTVEEAIEKVKEFLEKELPEGVELEVEEITISAG [r14_422_TrMRF] | 0.494 ± 0.12
SAGGSDEVTIDFQVKYNGQPFTVRITIERDPPDGKIEIPVEISYPNPEMREPAREIARNIVRELLNSAGGSA [r2_259_TrROS] | 0.873 ± 0.07
SAGGGGSTTQPQQVELPGDRTATVTLHTHGDTPTATITLSEKESELGTVTVPVASTAEVAAAVAALASAGGS [r16_55_JUSTAS] | 1.26 ± 0.028
SAGGSAGGSAIKEIVKRIEKLFGVDVEPEQEEREVNGGRYPTLPVTVKVPPNANSPALKEASAGGSAGGSAG [r3_427_TrROS] | -0.555 ± 0.4
SAGGSKTIVIDPEKVVKVEVKKNENGEKEIRIVVKNKDGEEKEVTIKPGEKLELPPKVEVVVLPEKSAGGSA [r2_347_TrROS_Hall] | -0.517 ± 0.28
SAETVVIPIEAPEDEILAAIKALIDANPDVKITITYADGEKKEITLPDGTKITIERLPDGTLLITVEKVSAG [r14_807_TrROS_Hall] | 3.19 ± 0.23
SAGGSAGGSAPVPINITFPDGSVAVNGSPDVAYLYFPEKGTIYRIPIDPDTNIITIEEVFKVPSAGGSAGGS [r12_539_TrMRF] | 0.744 ± 0.043

experiment: folding stability dG unfold from chymotrypsin proteolysis; higher = more stable
Summary of the method: as §1

Sequence | folding stability dG unfold [kcal/mol]
SAMTIVIRLPPPPPPLTAEELAELLGAEVTEIRVERNEDGELVVTITVREDMSEEQRRRLLELLRERAESAG [r14_421_TrROS_Hall] | 3.83 ± 0.048
SAGGSAKVKIIVTYNDGKKEEIIFDIPENYEISEVEKIAKKIAKNIAKKKNLPNVNIKVEKIEPLESAGGSA [r15_463_TrMRF] | 3.39 ± 0.06
SAGGSAGGSGSMPVTIEIEYKDPKSDKTFKKTILVPPSVTDPEAVAEEVAKELGPVEKVKITSSAGGSAGGS [r12_942_JUSTAS] | -0.44 ± 0.24
SAGGSAGGSAGGSAKSPNGDELPPGQPVEEHTIRPPVKPTITIKMYADPDAGKMKFELFSAGGSAGGSAGGS [r4_13_TrROS] | 0.446 ± 0.31
SAGMKETLKVKIKVKLSEEQREKLKKALEELGATVEVDEETGEVTVEVSAEQVEALKKIPGVEEIEVESAGG [r19_212_TrROS_Hall] | 2.61 ± 0.24
SAGGSAGGSAKPDKPIKVKVTLYNPATGEKTVVEVEVPPHVKPEEVAEALRKEFGAARVEVESAGGSAGGSA [r18_58_TrMRF] | 3.112 ± 0.03
SAFRDLAKEIARDAGYPVELVEIEFTNDTWTFMIQMKNDGEPYYFRIEIEWPNPNPGDWRIEIDDVQPPSAG [r14_387_TrROS] | 3.09 ± 0.094
SAGGKKIVIVAPPGMSPEELAELLKKLFPGLEVEVREVSAEELKKLKPGDEVLVIEVDGRLYAVKIKPSAGG [r13_649_TrROS_Hall] | 3.67 ± 0.14
SAGGSAGGSAGGKKKIKVKVTVYNKNGKPVAEFEFEFETEEEALEAAKKLGLPVRVEKESAGGSAGGSAGGS [r10_958_TrROS_Hall] | 2.57 ± 0.069
SAGGKIEELAKEIAQEHNIKSVDVQTTGGYPKVNVRFRNPKEGRMYRIKIHVPPDGNIKISIEPQELSAGGS [r16_433_TrROS] | 2.08 ± 0.13
SPFRLKIEIDEVGPAGQEIRVKLEIWSDNKPIEMEHTIKVPNGRLYRIRMNIYMPPDGNFQLNLDVYPLDSA [r9_255_TrROS] | 6.34 ± 0.37
SAGMKKKLYSGEIKEIEEALEKGLSLEEIEEIFSKGANGSLELEEENKKIYIFALEDKKAFLLVEYNPESAG [r5_343_TrMRF] | 1.46 ± 0.19
SAGGSAGGSAGKIKIVKDEKTGEYKLVVYDKNGKKVKTITLSKEELEKNPELLKKLLEELSAGGSAGGSAGG [r17_496_TrROS_Hall] | 4.56 ± 0.15
SAGGSAGGSALDPSAPYVVLIDIDIEPEKAEVEKIPGIPKYIVKKIDLKITIKIEIVSAKDASAGGSAGGSA [r18_137_TrMRF] | 3.14 ± 0.087
SAKTIPINIWGPLGDMDRMAEEIARMIARKLGLPANLKKIKIKFTEIEPWPDPDGKPRWVRMSIEIKVKSAG [r14_736_TrROS] | 3.61 ± 0.095
SAGMDMEEAEKLAEEIAEQLAKELEKKTGIKPEKIKIEVTVTKLPDGSYLITIKATLEDKEVEKTYTIASAG [r14_226_JUSTAS] | 2.28 ± 0.066
SAGEIKIKVEEVDPEKPYVRVTIEIKLEPGQSIEEALKKLLKPGVEEAKIVKVEEENGYLKIEILVRRKSAG [r5_227_TrROS_Hall] | 4.54 ± 0.28
SAGGSAGGPFKIKITEIFLIPFEPGEMIMIEIRFPNGKVYYIMLQVNPGNGWIWIAIMEIKPPDSAGGSAGG [r6_337_TrROS] | 5.1 ± 0.12
SAGGPPEGEKKKFRIDDVQPMPNPNGYFMVQIRYNDKPVSSIPIPPNNLDKLANDLPPGMEVEIYPFSAGGS [r8_41_TrROS] | 0.511 ± 0.19
SAGGSAGGSAPPGQEFPFEPVEEESIPIYDPDNGEPPLTISVWKMRMPGGPPMTFIMISPMSAGGSAGGSAG [r3_166_TrROS] | 2.32 ± 0.043
SAGGSAMRIKDVNPDNGYFRIEPPDNGKPIYELNVEAMKKAQENGDIPPWVRELLNHEPGYRIEPVSAGGSA [r15_359_TrROS] | -0.291 ± 0.21

Sequence | folding stability dG unfold [kcal/mol]
SAGGATAVIADFPLPEGTLRVAVVKKDDKPYVFVFPSGISAEELKKILEEKLGVDIKKVEVKTVSTADESAG [r5_181_TrMRF] | 2.04 ± 0.022
SAGGSAGGSAGGIDFPEKGFVVVVTFPDGSKAEFEVPSDRPLVLNETAGDVTVDEIREKDSAGGSAGGSAGG [r7_542_TrMRF] | -0.125 ± 0.18
SAGGSAGGSAMTITKTITFSSKEEAEKFVKELEEKGNITITMTYEKLPSGKYKVTVTITKPSAGGSAGGSAG [r3_273_JUSTAS] | 3.71 ± 0.049
SAGMIKITIITENGEEITIEIPENMSEEELKELAEKIAKEIAKKLNIPKVKIKKIKIEKIELTPEQIKKSAG [r5_377_TrROS_Hall] | 1.97 ± 0.098
SAGGSAGGAIGTIDYNGKPLRLSVYLPDNPRVFEYPVDGDPLVFAAELNRETGFDVTDVVVVGGSAGGSAGG [r6_762_TrMRF] | 0.033 ± 0.18
SASMIIDPVSSEEEIEKLVKEAIEAGIGGEGLIVLRSDGKVYRITIEPGTGKVKKEEVMSPEELAAKLGSAG [r14_913_JUSTAS] | 2.11 ± 0.051
SAGGSSVRISFPNGYTVEITVTEDSATITLRSPTSTETVEFPSSVQVTITGPLNQPVTFDIPSSSESAGGSA [r2_57_TrMRF] | 2.811 ± 0.024
SAGGSAGGSAGPPDIEVNYYRYEGYYRVNISFPNNRPIEIMMKGPGMPAEDFVKKLLDQLSAGGSAGGSAGG [r11_313_TrROS] | 2.35 ± 0.059
SAGMVVVEIRTRDGRTLTVEVEAESEEEAERLARELAEELRRKFPDLEIRVERVEPPEPPEEVVEEEEESAG [r5_950_TrROS_Hall] | 3.41 ± 0.13
SAGGTSYLVRLELYETSTGEPLELELPFPNLPAEEVEELAKELAKALAEPTGNDLKARVEVVPLPDESAGGS [r8_185_TrMRF] | 0.717 ± 0.054
SAGGSAGGSDTVNVKVTVSFPPGTETKEITVNVPVVPGNPDVVKAKVDELAAAFPDAVVTAEKSAGGSAGGS [r12_795_TrMRF] | 1.99 ± 0.095
SMEEELPPKVTEVVVKVPLSPDASPEEIAAARALAAELAAALEAAGYRDVEVTVEPTEPGALVIRARVVVSA [r9_865_JUSTAS] | 4.36 ± 0.057
SAGWFVRIEIEPPGEKREIMIPFSWDEARELLKDLGLEVEVDPESPTFEFKLPNYQIKVEFMPIPPGQMSAG [r5_248_TrROS] | 3.6 ± 0.049
SAGGPRITITYPLPPGDIEKIEKLAKEALDNGDNVDVNIPHPNGWYVTLTVDPPNGKIEEVEWQPPDKSAGG [r13_873_TrROS] | 0.598 ± 0.061
SAPKIKEIKEFDPETKKILIKVETPEGEKEIPIPAGGNMTVEEAIEKVKEFLEKELPEGVELEVEEITISAG [r14_422_TrMRF] | 1.35 ± 0.1
SAGGSDEVTIDFQVKYNGQPFTVRITIERDPPDGKIEIPVEISYPNPEMREPAREIARNIVRELLNSAGGSA [r2_259_TrROS] | 1.66 ± 0.17
SAGGGGSTTQPQQVELPGDRTATVTLHTHGDTPTATITLSEKESELGTVTVPVASTAEVAAAVAALASAGGS [r16_55_JUSTAS] | 0.683 ± 0.029
SAGGSAGGSAIKEIVKRIEKLFGVDVEPEQEEREVNGGRYPTLPVTVKVPPNANSPALKEASAGGSAGGSAG [r3_427_TrROS] | 0.636 ± 0.093
SAGGSKTIVIDPEKVVKVEVKKNENGEKEIRIVVKNKDGEEKEVTIKPGEKLELPPKVEVVVLPEKSAGGSA [r2_347_TrROS_Hall] | 1.39 ± 0.18
SAETVVIPIEAPEDEILAAIKALIDANPDVKITITYADGEKKEITLPDGTKITIERLPDGTLLITVEKVSAG [r14_807_TrROS_Hall] | 1.74 ± 0.066
SAGGSAGGSAPVPINITFPDGSVAVNGSPDVAYLYFPEKGTIYRIPIDPDTNIITIEEVFKVPSAGGSAGGS [r12_539_TrMRF] | 1.03 ± 0.067
